From PMC2821881

Target: phosphorylated microtubule-associated protein (pMAP) labelled by the 12E8 antibody (chick (endogenous in primary chick neurons))
Experiment: FRET or BRET

**Q.** For “human cofilin-GFP (from UniProt P23528 1-166) (natural protein)”, which FRET efficiency is on record?
**A.** 41%
